# Measured values from US20240409645A1 (published 2024).
# B1: 9-MP05G01 VHH-hFc, monospecific monovalent (Fc fusion)
# VHH: EVQLVESGGGLVQAGGSLRLSCAASGGSIYTYNMGWFRQAPGKEREFVAGTLWSGGDSVYADFAKGRFTLSRENAKNTLYLQMNSLKPEDTATYYCAIDPLSLTSDWRVDELSSWGKGTLVTVSS
# B2: BsVHH-8 (32x18) (antibody)
# chain: QVQLVESGGGLVQAGGSLRLSCAASGRTFGSTAVGWFRQVPGKEREFVSAINRSGSATTYADSVKGRFTISRDNAKNTVYLQMNSLTPEDTGVYYCAADSLPYGRPYYFQRSAGEYDYWGQGTQVTVSSGGGGSGGGGSGGGGSGSQVQLVESGGGLVQPGGSLRLSCAISGGTLDSYGIGWVRQAPGKQREGVSCMSRSDDRTYYADSVKGRFTISKDSAKNTVYLQMTSLKPEDTAVYYCAAVDAYGCSLVQPTTYDFWGLGTQVTVSSGGGGSGGGGSGGGGSTVSSDKTHTCPPCPAPEAAGGPSVFLFPPKPKDTLMISRTPEVTCVVVDVSHEDPEVKFNWYVDGVEVHNAKTKPREEQYNSTYRVVSVLTVLHQDWLNGKEYKCKVSNKALGAPIEKTISKAKGQPREPQVYTLPPSRDELTKNQVSLTCLVKGFYPSDIAVEWESNGQPENNYKTTPPVLDSDGSFLLYSKLTVDKSRWQQGNVFSCSVMHEALHNHYTQKSLSLSPGK
# B3: BsVHH-15 (36x19) (antibody)
# chain: QVQLVESGGGLVQAGGSLRLSCAASGRTLSRYAMGWFRQAPGSEREFVAASSWGGDTFYADSVEGRFTFSRDNAKNAVYLQMNSLQPEDTAAYYCAAAPTSFPTTAYSSSNSYAYWGQGTQVTVSSGGGGSGGGGSGGGGSGSEVQLVESGGGLVQTGGSLRLSCAASGGTFSRDAMAWFRQVPGKEREFVALISWSGATTNYADSVKGRFAISRDNGKNTVYLQMNRLKPADTAIYYCAADRRPMGSRSYFEPTEYDDWGQGTQVTVSSGGGGSGGGGSGGGGSTVSSDKTHTCPPCPAPEAAGGPSVFLFPPKPKDTLMISRTPEVTCVVVDVSHEDPEVKFNWYVDGVEVHNAKTKPREEQYNSTYRVVSVLTVLHQDWLNGKEYKCKVSNKALGAPIEKTISKAKGQPREPQVYTLPPSRDELTKNQVSLTCLVKGFYPSDIAVEWESNGQPENNYKTTPPVLDSDGSFLLYSKLTVDKSRWQQGNVFSCSVMHEALHNHYTQKSLSLSPGK
# B4: BsVHH-6 (27x18) (antibody)
# chain: QVQLVESGGGLVQAGGSLTLSCAAPGRTFGTDVVGWFRQAPGKEREFVASISRSGDGIYYDDSVKGRFTISRNNAWNTVNLQMNSLKVEDTAVYYCAAGDGWSTYDYWGQGTQVTVSSGGGGSGGGGSGGGGSGSQVQLVESGGGLVQPGGSLRLSCAISGGTLDSYGIGWVRQAPGKQREGVSCMSRSDDRTYYADSVKGRFTISKDSAKNTVYLQMTSLKPEDTAVYYCAAVDAYGCSLVQPTTYDFWGLGTQVTVSSGGGGSGGGGSGGGGSTVSSDKTHTCPPCPAPEAAGGPSVFLFPPKPKDTLMISRTPEVTCVVVDVSHEDPEVKFNWYVDGVEVHNAKTKPREEQYNSTYRVVSVLTVLHQDWLNGKEYKCKVSNKALGAPIEKTISKAKGQPREPQVYTLPPSRDELTKNQVSLTCLVKGFYPSDIAVEWESNGQPENNYKTTPPVLDSDGSFLLYSKLTVDKSRWQQGNVFSCSVMHEALHNHYTQKSLSLSPGK
# B5: BsVHH-20 (36x22) (antibody)
# chain: QVQLVESGGGLVQAGGSLRLSCAASGRTLSRYAMGWFRQAPGSEREFVAASSWGGDTFYADSVEGRFTFSRDNAKNAVYLQMNSLQPEDTAAYYCAAAPTSFPTTAYSSSNSYAYWGQGTQVTVSSGGGGSGGGGSGGGGSGSEVQLVESGGGLVQAGGSLRLSCAASGSIFSINAMAWFRQVPGMERELVAAISRDGGASVYRDSVKGRFTISRDNSKNTVYLQMNTLKPEDTAIYVCAATRAIGWTARWITTDFDFWGQGTQVTVSSGGGGSGGGGSGGGGSTVSSDKTHTCPPCPAPEAAGGPSVFLFPPKPKDTLMISRTPEVTCVVVDVSHEDPEVKFNWYVDGVEVHNAKTKPREEQYNSTYRVVSVLTVLHQDWLNGKEYKCKVSNKALGAPIEKTISKAKGQPREPQVYTLPPSRDELTKNQVSLTCLVKGFYPSDIAVEWESNGQPENNYKTTPPVLDSDGSFLLYSKLTVDKSRWQQGNVFSCSVMHEALHNHYTQKSLSLSPGK
# B6: BsVHH-3 (32x16) (antibody)
# chain: QVQLVESGGGLVQAGGSLRLSCAASGRTFGSTAVGWFRQVPGKEREFVSAINRSGSATTYADSVKGRFTISRDNAKNTVYLQMNSLTPEDTGVYYCAADSLPYGRPYYFQRSAGEYDYWGQGTQVTVSSGGGGSGGGGSGGGGSGSEVQLVESGGGLVQAGGSLRLSCAASGRAIENYPVGWFRQAPGKEREFVAAITWISGSTLYADSVKGRFTISRDNAKNTVYLQMSSLKPEDTALYYCAAALKTITRGQNDYSYWGQGTQVTVSSGGGGSGGGGSGGGGSTVSSDKTHTCPPCPAPEAAGGPSVFLFPPKPKDTLMISRTPEVTCVVVDVSHEDPEVKFNWYVDGVEVHNAKTKPREEQYNSTYRVVSVLTVLHQDWLNGKEYKCKVSNKALGAPIEKTISKAKGQPREPQVYTLPPSRDELTKNQVSLTCLVKGFYPSDIAVEWESNGQPENNYKTTPPVLDSDGSFLLYSKLTVDKSRWQQGNVFSCSVMHEALHNHYTQKSLSLSPGK
# B7: BsVHH-10 (36x18) (antibody)
# chain: QVQLVESGGGLVQAGGSLRLSCAASGRTLSRYAMGWFRQAPGSEREFVAASSWGGDTFYADSVEGRFTFSRDNAKNAVYLQMNSLQPEDTAAYYCAAAPTSFPTTAYSSSNSYAYWGQGTQVTVSSGGGGSGGGGSGGGGSGSQVQLVESGGGLVQPGGSLRLSCAISGGTLDSYGIGWVRQAPGKQREGVSCMSRSDDRTYYADSVKGRFTISKDSAKNTVYLQMTSLKPEDTAVYYCAAVDAYGCSLVQPTTYDFWGLGTQVTVSSGGGGSGGGGSGGGGSTVSSDKTHTCPPCPAPEAAGGPSVFLFPPKPKDTLMISRTPEVTCVVVDVSHEDPEVKFNWYVDGVEVHNAKTKPREEQYNSTYRVVSVLTVLHQDWLNGKEYKCKVSNKALGAPIEKTISKAKGQPREPQVYTLPPSRDELTKNQVSLTCLVKGFYPSDIAVEWESNGQPENNYKTTPPVLDSDGSFLLYSKLTVDKSRWQQGNVFSCSVMHEALHNHYTQKSLSLSPGK
# B8: BsVHH-7 (31x18) (antibody)
# chain: QVQLVESGGGLVQAGGSLRLSCTGYGGAFTGYALGWFRQAPGKEREFVARINWSGSFTYYASSVKGRFTISRDNAKNTMYLQMNNLKPEDTAVYYCAADNPSTLATDYDNWGQGTQVTVSSGGGGSGGGGSGGGGSGSQVQLVESGGGLVQPGGSLRLSCAISGGTLDSYGIGWVRQAPGKQREGVSCMSRSDDRTYYADSVKGRFTISKDSAKNTVYLQMTSLKPEDTAVYYCAAVDAYGCSLVQPTTYDFWGLGTQVTVSSGGGGSGGGGSGGGGSTVSSDKTHTCPPCPAPEAAGGPSVFLFPPKPKDTLMISRTPEVTCVVVDVSHEDPEVKFNWYVDGVEVHNAKTKPREEQYNSTYRVVSVLTVLHQDWLNGKEYKCKVSNKALGAPIEKTISKAKGQPREPQVYTLPPSRDELTKNQVSLTCLVKGFYPSDIAVEWESNGQPENNYKTTPPVLDSDGSFLLYSKLTVDKSRWQQGNVFSCSVMHEALHNHYTQKSLSLSPGK
# B9: BsVHH-9 (35x18) (antibody)
# chain: QVQLQESGGGLVQGGGSLRLSCAASGGIFSSYAMGWFRQAPGKEREFVAAISRSGRSTNYADSVKGRFTISRDNAKSTVYLQMNSLKPEETAVYYCAAGRYYNSAYDPSPGDFGSWGHGTQVTVSSGGGGSGGGGSGGGGSGSQVQLVESGGGLVQPGGSLRLSCAISGGTLDSYGIGWVRQAPGKQREGVSCMSRSDDRTYYADSVKGRFTISKDSAKNTVYLQMTSLKPEDTAVYYCAAVDAYGCSLVQPTTYDFWGLGTQVTVSSGGGGSGGGGSGGGGSTVSSDKTHTCPPCPAPEAAGGPSVFLFPPKPKDTLMISRTPEVTCVVVDVSHEDPEVKFNWYVDGVEVHNAKTKPREEQYNSTYRVVSVLTVLHQDWLNGKEYKCKVSNKALGAPIEKTISKAKGQPREPQVYTLPPSRDELTKNQVSLTCLVKGFYPSDIAVEWESNGQPENNYKTTPPVLDSDGSFLLYSKLTVDKSRWQQGNVFSCSVMHEALHNHYTQKSLSLSPGK
# B10: BsVHH-4 (35x16) (antibody)
# chain: QVQLQESGGGLVQGGGSLRLSCAASGGIFSSYAMGWFRQAPGKEREFVAAISRSGRSTNYADSVKGRFTISRDNAKSTVYLQMNSLKPEETAVYYCAAGRYYNSAYDPSPGDFGSWGHGTQVTVSSGGGGSGGGGSGGGGSGSEVQLVESGGGLVQAGGSLRLSCAASGRAIENYPVGWFRQAPGKEREFVAAITWISGSTLYADSVKGRFTISRDNAKNTVYLQMSSLKPEDTALYYCAAALKTITRGQNDYSYWGQGTQVTVSSGGGGSGGGGSGGGGSTVSSDKTHTCPPCPAPEAAGGPSVFLFPPKPKDTLMISRTPEVTCVVVDVSHEDPEVKFNWYVDGVEVHNAKTKPREEQYNSTYRVVSVLTVLHQDWLNGKEYKCKVSNKALGAPIEKTISKAKGQPREPQVYTLPPSRDELTKNQVSLTCLVKGFYPSDIAVEWESNGQPENNYKTTPPVLDSDGSFLLYSKLTVDKSRWQQGNVFSCSVMHEALHNHYTQKSLSLSPGK
# Experiments:
# [1] = biological target: T1, human IL-2 receptor IL-2Rα/IL-2Rβ/γc on HEK-Blue IL-2 cells (UniProt P01589 22-272; P14784 27-551; P31785 23-369); assay: FACS cell binding; monovalent
# T1 chain 1: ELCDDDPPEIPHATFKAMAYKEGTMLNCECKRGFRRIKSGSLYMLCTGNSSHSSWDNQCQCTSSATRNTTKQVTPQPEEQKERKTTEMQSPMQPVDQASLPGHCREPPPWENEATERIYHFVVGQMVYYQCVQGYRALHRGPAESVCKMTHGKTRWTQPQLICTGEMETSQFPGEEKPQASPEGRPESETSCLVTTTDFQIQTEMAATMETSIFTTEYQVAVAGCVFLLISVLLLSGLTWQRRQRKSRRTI
# T1 chain 2: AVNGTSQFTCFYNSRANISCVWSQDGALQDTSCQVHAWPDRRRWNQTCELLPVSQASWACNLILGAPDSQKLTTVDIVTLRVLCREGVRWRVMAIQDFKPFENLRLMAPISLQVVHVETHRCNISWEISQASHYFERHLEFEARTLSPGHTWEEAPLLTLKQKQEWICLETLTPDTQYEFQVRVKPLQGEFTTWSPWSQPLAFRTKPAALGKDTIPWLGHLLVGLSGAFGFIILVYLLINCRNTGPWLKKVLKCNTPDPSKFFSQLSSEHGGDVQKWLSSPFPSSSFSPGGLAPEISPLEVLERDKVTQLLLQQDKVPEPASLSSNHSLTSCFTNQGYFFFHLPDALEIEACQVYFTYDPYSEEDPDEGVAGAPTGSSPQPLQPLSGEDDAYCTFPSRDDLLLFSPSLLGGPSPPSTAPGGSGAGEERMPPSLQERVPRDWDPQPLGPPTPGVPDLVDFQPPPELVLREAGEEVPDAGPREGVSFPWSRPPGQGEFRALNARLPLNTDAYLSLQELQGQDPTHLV
# T1 chain 3: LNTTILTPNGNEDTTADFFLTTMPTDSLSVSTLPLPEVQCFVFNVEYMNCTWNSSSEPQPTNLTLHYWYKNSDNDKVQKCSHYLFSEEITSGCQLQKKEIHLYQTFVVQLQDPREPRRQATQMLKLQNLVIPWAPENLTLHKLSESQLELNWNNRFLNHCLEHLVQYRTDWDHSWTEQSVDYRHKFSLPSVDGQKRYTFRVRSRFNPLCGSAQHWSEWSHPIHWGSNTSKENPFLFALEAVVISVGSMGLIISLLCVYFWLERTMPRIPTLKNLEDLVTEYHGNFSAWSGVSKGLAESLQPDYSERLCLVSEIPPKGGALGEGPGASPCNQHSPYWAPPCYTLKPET
# [2] = biological target: T1, human IL-2 receptor IL-2Rα/IL-2Rβ/γc on …; assay: FACS cell binding; avid
Binder,EC50 [1] [nM],EC50 [2] [nM]
B1,2.3,
B2,,1.9
B3,,88.3
B4,,172
B5,,3.4
B6,,3.7
B7,,4.2
B8,,23.5
B9,,1.3
B10,,3.5
